The series deals with the molecule itself. In words: cross-linking.

B1: proteasomal 20S core particle subunit α2 with C-terminal His6 tag (α2-His6) (natural protein, Haloferax volcanii, UniProt Q9V2V5 1-249, looked up)
chain: MNRNDKQAYDRGTSLFSPDGRIYQVEYAREAVKRGAPVLGVRTADGVVLAALRSTPSELMEAESIEKLHKLDDALGAATAGHVADARKLVDFARTTAQREHLRYGEPIGVETLTKTITDNIQESTQSGGTRPYGASLLIGGVENGSGRLFATDPSGTPQEWKAVAIGGHREDVQAALEDGYAEDLSLEDGLALAVEALVAADEEIESDELNLVTVSEAGYEIVDEETIAELFADATADDESDETDEREE
Take B1: the binding result is on record as “binds”.

B2: proteasomal 20S core particle subunit α1 with His6 tag (α1-His6) (natural protein, Haloferax volcanii, UniProt Q9V2V6 1-252, looked up)
chain: MQGQAQQQAYDRGITIFSPDGRLYQVEYAREAVKRGTASIGVRTPEGVVLAADKRSRSPLMEPTSVEKIHKADDHIGIASAGHVADARQLIDFARRQSQVNRLRYGEPIGIETLTKEVTDHIQQYTQVGGARPFGVALLIGGVENGTPRLYETDPSGTPYEWKAVSIGADRGDHQEHLEENFRDDLTLDEGIELALEAIASTSDEGTAPDGVDVATVSAETERFVELSNDEIESYLEANDLLATEDDEQTEE
For the protein B2, the binding result is reported as “binds”.

These data come from publication PMC3517063 (Proteomics, 2012).
